Columns and labels:
recombinant human GM-CSF [1] = target: T1, recombinant human GM-CSF (human, UniProt P04141 18-144); assay: Biacore
T1 construct: also called rhGM-CSF; CSF2

recombinant human GM-CSF [2] = target: T1, recombinant human GM-CSF; assay: Biacore; remark: listed apart in the source
recombinant human GM-CSF [3] = target: T1, recombinant human GM-CSF; assay: Gator, Coating Ab
recombinant human GM-CSF [4] = target: T1, recombinant human GM-CSF; assay: Gator, Coating Ag
recombinant human GM-CSF [5] = target: T1, recombinant human GM-CSF; assay: cell-based or functional assay
recombinant human GM-CSF [6] = target: T1, recombinant human GM-CSF; assay: Biacore; remark: listed apart in the source
recombinant human GM-CSF [7] = target: T1, recombinant human GM-CSF; assay: cell-based or functional assay; remark: listed apart in the source
recombinant human GM-CSF [8] = target: T1, recombinant human GM-CSF; assay: Gator (pro), Coating Ag
recombinant human GM-CSF [9] = target: T1, recombinant human GM-CSF; assay: ELISA on coated rhGM-CSF, UBA relative to 1D2
Summary of the method: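 Antibody clones carrying SDR point mutants in VH or VL, each paired with the wild-type chain, were expressed in HEK293 cells. Culture media diluted 1:12000 were bound to plates coated with rhGM-CSF at 1 μg/mL for 1 h at room temperature. Detection used HRP anti-human antibody and Amplex Red fluorescence (Ex530/Em590), with UBA = fluorescence signal/dilution factor.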

recombinant human GM-CSF [10] = target: T1, recombinant human GM-CSF; assay: SPR Biacore 3000, antibody captured by goat anti-human IgG, rhGM-CSF injected
Experimental: The kinetic binding analysis of anti-GM-CSF antibodies to recombinant human GM-CSF (rhGM-CSF) was determined by Surface plasmon resonance (SPR) using the Biacore 3000 instrument (GE Healthcare). Goat anti-human IgG (5 μg/mL) (SouthernBiotech) was stabilized in […] acetate buffer, pH 4.5, and immobilized on an EDC/NHS pre-activated carboxymethylated dextran 5 (CMS) sensor chip (GE Healthcare) through amine coupling kit (GE Healthcare). HBS-EP buffer (HBS; 10 […], 0.005% surfactant Tween-20, pH 7.4) (GE Healthcare) was used as running buffer. […] CMS sensor chip coated only with goat anti-human IgG was used as reference chip. rhGM-CSF (Biolegend) was injected over the mAb-coated CMS sensor chip and reference chip at different concentrations. The flow rate was 30 μl/min. […] Injection time and dissociation time were 180 and 600 seconds. Data were fitted to a 1:1 model using the Biacore 3000 evaluation software.

recombinant human GM-CSF [11] = target: T1, recombinant human GM-CSF; assay: ELISA, GM-CSF coated on the plate, anti-human kappa light chain-HRP, OD 450 nm
Experimental: (§1) Human and mouse GM-CSF have about 56% homology and are species specific. Rhesus and GM-CSF has 96.5% homologous to human GM-CSF (Hutchinson et al, J Med Virol 2001, 65:561-565, Genbank accession number AY007376). […] ELISA was performed as followed. Briefly, GM-CSF proteins were coated on the ELISA absorbing plates, then blocked by 1% BSA in PBS. […] After incubation, the plates were washed three times with TBST and incubated with anti-human kappa light chain conjugated HRP secondary antibodies. Plates were washed three times, TMB peroxidase substrate was added and reactions were stopped by adding 1 N sulfuric acid.

mouse GM-CSF = target: T2, mouse GM-CSF (mouse, UniProt P01587 18-141); assay: as above
T2 sequence (looked up): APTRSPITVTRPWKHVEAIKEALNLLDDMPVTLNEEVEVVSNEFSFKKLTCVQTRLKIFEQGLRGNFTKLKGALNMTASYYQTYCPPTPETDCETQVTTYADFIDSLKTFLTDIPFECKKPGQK
Experimental: as §1

rhesus GM-CSF [12] = target: T3, rhesus GM-CSF (rhesus, UniProt Q9GL44 18-144); assay: as above
T3 sequence (Q9GL44 entry or part of it limits assumed): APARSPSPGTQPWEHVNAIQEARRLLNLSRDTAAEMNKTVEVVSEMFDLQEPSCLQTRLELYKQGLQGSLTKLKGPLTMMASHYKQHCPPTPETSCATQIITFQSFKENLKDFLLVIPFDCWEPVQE
Experimental: as §1

recombinant human GM-CSF [13] = target: T1, recombinant human GM-CSF; assay: ELISA, human GM-CSF coated on the plate, anti-human kappa light chain-HRP, OD 450 nm
Experimental: as §1

rhesus GM-CSF [14] = target: T3, rhesus GM-CSF; assay: ELISA, rhesus GM-CSF coated on the plate, anti-human kappa light chain-HRP, OD 450 nm
Experimental: as §1

T1 sequence (P04141 18-144 limits assumed): as the sequence (Q9GL44 entry or part of it limits assumed) above, with G9S, K38E, V43I, S53T, Q67R, Q104E counted along it

- Ka (recombinant human GM-CSF [1]): 1.01e+10 M⁻¹
- Kd (recombinant human GM-CSF [1]): 0.099 nM
- koff (recombinant human GM-CSF [1]): 0.000173 s⁻¹
- kon (recombinant human GM-CSF [1]): 1.75e+06 M⁻¹ s⁻¹
- Kd (recombinant human GM-CSF [2]): 0.162 nM
- Kd (recombinant human GM-CSF [3]): 0.177 nM
- Kd (recombinant human GM-CSF [4]): 0.0176 nM
- IC50, inhibition of GM-CSF induced TF-1 cell proliferation (recombinant human GM-CSF [5]): 0.0631 nM
- IC50, inhibition of rhGM-CSF induced CCL17 secretion from PBMCs (recombinant human GM-CSF [5]): 0.0714 nM
- IC50, inhibition of rhGM-CSF induced CCL17 secretion in human PBMCs (recombinant human GM-CSF [5]): 0.159 nM
- IC50, inhibition of rhGM-CSF induced IL-8 secretion in U937 cells (recombinant human GM-CSF [5]): 0.0594 nM
- Kd (recombinant human GM-CSF [6]): 0.099 nM
- koff (recombinant human GM-CSF [6]): 0.000173 s⁻¹
- kon (recombinant human GM-CSF [6]): 1.75e+06 M⁻¹ s⁻¹
- IC50 (M), inhibition of GM-CSF induced TF-1 cell proliferation (FIG. 5A) (recombinant human GM-CSF [7]): 1.71e-10 M
- IC50 (M), inhibition of GM-CSF induced TF-1 cell proliferation (FIG. 5B) (recombinant human GM-CSF [7]): 2.28e-10 M
- Kd (recombinant human GM-CSF [8]): 0.00157 nM
- binding affinity % of 1D2 (recombinant human GM-CSF [9]): 100%
- Kd (recombinant human GM-CSF [10]): 0.0643 nM
- koff (recombinant human GM-CSF [10]): 7.48e-05 s⁻¹
- kon (recombinant human GM-CSF [10]): ~1.16e+06 M⁻¹ s⁻¹
- EC50 (read off the curve) (recombinant human GM-CSF [11]): ~0.08 nM
- binding result (mouse GM-CSF): no binding (tested: about 4e-8 M)
- EC50 (read off the curve) (rhesus GM-CSF [12]): ~0.06 nM
- EC50 (read off the curve) (recombinant human GM-CSF [13]): ~0.4 nM
- EC50 (read off the curve) (rhesus GM-CSF [14]): ~0.5 nM
B1: antibody 1D2 (antibody, V domains shown)
VH: QVQLVQSGAEVKKPGASVKVSCEASGYTFTDKYLHWVRQAPGQGLEWMAWINPKSGGTFYAQNFKGRVTVTRDTSINTAYLELTSLRLDDTSTYYCARGRDYYDQGAADLWGQGTMVTVSS
VL: DIQLTQSPSSLSASVGDRVTITCRASQGINSVLAWYQQKPGKAPKLLLYAASKLESGVPSRFSGSGSGTDYTLTISSLQPEDFGTYYCQQYYSPVRTFGQGTKVEIKR
notes: also called 1D2-WT; WT

— patent publication US20210309732A1 (ELIXIRON IMMUNOTHERAPEUTICS HONG KONG, published 2021)
